# Measurements from patent publication US20060177452A1 (BURNHAM INSTITUTE FOR MEDICAL RESEARCH, published 2006).
# No end group written: not given here.
# T1: EphB2 ectodomain fused to human Fc, carboxy-terminal hexahistidine tag (human)
# T1 chain: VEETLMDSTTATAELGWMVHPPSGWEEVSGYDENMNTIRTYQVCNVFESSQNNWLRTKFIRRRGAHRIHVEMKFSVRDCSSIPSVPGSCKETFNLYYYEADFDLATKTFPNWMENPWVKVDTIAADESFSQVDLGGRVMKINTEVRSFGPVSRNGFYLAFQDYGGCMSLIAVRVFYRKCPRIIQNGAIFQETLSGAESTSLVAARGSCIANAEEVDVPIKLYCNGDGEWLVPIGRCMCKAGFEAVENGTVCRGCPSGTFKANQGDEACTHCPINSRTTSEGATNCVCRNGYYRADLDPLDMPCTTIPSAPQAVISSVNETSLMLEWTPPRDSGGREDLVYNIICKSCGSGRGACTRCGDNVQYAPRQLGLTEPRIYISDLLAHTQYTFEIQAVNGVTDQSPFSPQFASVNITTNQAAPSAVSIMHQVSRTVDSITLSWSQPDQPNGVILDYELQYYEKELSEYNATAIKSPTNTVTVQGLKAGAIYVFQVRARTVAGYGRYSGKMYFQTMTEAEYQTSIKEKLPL
# T2: EphB4 ectodomain fused to human Fc, carboxy-terminal hexahistidine tag (human)
# T2 chain: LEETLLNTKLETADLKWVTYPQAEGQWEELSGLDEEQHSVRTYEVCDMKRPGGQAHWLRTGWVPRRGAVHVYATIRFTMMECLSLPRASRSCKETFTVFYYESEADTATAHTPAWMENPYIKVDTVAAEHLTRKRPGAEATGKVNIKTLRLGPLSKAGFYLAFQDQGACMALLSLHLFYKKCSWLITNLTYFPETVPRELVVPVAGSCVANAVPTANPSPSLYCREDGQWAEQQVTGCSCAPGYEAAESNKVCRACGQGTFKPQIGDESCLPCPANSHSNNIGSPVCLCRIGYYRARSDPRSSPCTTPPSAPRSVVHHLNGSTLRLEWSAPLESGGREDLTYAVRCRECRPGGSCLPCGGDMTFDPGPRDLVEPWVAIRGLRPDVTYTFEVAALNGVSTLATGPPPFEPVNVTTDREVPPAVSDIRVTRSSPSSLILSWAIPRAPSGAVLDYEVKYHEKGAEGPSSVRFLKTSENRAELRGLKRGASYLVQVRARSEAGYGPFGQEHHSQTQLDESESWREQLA
# T3: endogenous EphB4 of MCF7 human breast cancer cells (human, UniProt P54760 16-987)
# T3 construct: whole, on cells; In pull-downs it stood in cell lysates; also called endogenous EphB4 (MCF-7)
# T3 sequence (looked up): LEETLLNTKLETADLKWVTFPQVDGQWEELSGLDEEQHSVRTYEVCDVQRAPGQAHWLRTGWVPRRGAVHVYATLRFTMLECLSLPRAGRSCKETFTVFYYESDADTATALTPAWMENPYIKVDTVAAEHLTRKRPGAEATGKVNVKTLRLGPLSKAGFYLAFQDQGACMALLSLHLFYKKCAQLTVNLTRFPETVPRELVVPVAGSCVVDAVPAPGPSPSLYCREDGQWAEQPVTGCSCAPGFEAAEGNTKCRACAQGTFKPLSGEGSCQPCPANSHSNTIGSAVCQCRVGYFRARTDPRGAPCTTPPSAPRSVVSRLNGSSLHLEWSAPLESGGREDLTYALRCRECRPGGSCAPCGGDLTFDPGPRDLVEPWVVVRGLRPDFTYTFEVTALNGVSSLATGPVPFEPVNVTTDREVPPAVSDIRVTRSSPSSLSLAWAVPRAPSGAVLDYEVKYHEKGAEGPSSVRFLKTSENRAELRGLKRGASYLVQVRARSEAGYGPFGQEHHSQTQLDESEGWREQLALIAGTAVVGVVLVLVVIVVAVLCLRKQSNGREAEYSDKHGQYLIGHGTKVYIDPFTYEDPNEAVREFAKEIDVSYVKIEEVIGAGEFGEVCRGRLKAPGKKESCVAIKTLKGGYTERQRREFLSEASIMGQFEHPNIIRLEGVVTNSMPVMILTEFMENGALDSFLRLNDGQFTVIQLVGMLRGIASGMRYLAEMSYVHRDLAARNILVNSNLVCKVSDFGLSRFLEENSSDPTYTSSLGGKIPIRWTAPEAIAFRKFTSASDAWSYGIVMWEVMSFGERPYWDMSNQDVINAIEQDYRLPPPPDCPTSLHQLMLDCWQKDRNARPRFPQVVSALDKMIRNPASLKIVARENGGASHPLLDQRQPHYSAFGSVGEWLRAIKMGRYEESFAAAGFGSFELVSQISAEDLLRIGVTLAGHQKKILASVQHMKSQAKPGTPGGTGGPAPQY
# B1: AHTF peptide, synthetic, biotinylated (peptide)
# peptide: AHTFPYPHPKPHGSGS
# modifications: C-terminal biotin: on the Lys side chain of a GSGSK linker, or N-biotinyl-ethylenediamine after GSGS (which one is not stated)
# B2: DALN peptide, synthetic, biotinylated (peptide)
# peptide: DALNDWLLFRPWGSGS
# modifications: also: C-terminal biotin, via GSGSK Lys side chain or biotinyl-ethylenediamine, not settled
# B3: WHWT peptide, synthetic, biotinylated (peptide)
# peptide: WHWTIEPFAITSGSGS
# modifications: C-terminal biotin: on the Lys side chain of a GSGSK linker, or N-biotinyl-ethylenediamine after GSGS (which one is not stated)
# B4: DHNH peptide, synthetic, biotinylated (peptide)
# peptide: DHNHNLYNPWRLGSGS
# modifications: also: C-terminal biotin, via GSGSK Lys side chain or biotinyl-ethylenediamine, not settled
# B5: SHWPI peptide, synthetic, biotinylated (peptide)
# peptide: SHWPISPYSLLSGSGS
# modifications: also: C-terminal biotin, via GSGSK Lys side chain or biotinyl-ethylenediamine, not settled
# B6: DHWRI peptide, synthetic, biotinylated (peptide)
# peptide: DHWRILPFSLSSGSGS
# modifications: also: C-terminal biotin, via GSGSK Lys side chain or biotinyl-ethylenediamine, not settled
# Assays:
# [1] = target: EphB4 ectodomain fused to human Fc, carboxy-terminal hexahistidine tag (human); assay: inhibition of ephrin-B2 AP binding to immobilized EphB4 ectodomain Fc
# [2] = target: EphB4 ectodomain fused to human Fc, carboxy-terminal hexahistidine tag (human); assay: inhibition of ephrin-B2 AP binding to immobilized EphB4 ectodomain Fc (FIG. 6B)
# [3] = target: EphB1 ectodomain fused to human Fc, carboxy-terminal hexahistidine tag (human); assay: inhibition of ephrin-B2 AP binding to immobilized EphB1 ectodomain Fc; biotinylated peptide
# [4] = target: T1, EphB2 ectodomain fused to human Fc, …; assay: phage ELISA on immobilized EphB Fc
# [5] = target: T2, EphB4 ectodomain fused to human Fc, …; assay: phage ELISA on immobilized EphB Fc
# [6] = target: T2, EphB4 ectodomain fused to human Fc, …; assay: inhibition of ephrin-B2 AP binding to immobilized EphB4 ectodomain Fc (FIG. 6A)
# [7] = target: T2, EphB4 ectodomain fused to human Fc, …; assay: inhibition of ephrin-B2 AP binding to immobilized EphB4 ectodomain Fc; biotinylated peptide
# [8] = target: T1, EphB2 ectodomain fused to human Fc, …; assay: inhibition of ephrin-B2 AP binding to immobilized EphB2 ectodomain Fc; biotinylated peptide
# [9] = target: T3, endogenous EphB4 of MCF7 human breast …; assay: biotinylated TNYL and streptavidin quantum dots, fluorescence microscopy of MCF-7 cells
molecule,measurement,setting,value
ephrin-B2 Fc (Fc fusion),IC50,[1],0.009 µM
same,IC50,[2],9 µM
B1,IC50,[3],150 µM
LPHGPVAAWDA (coat-protein fusion not described),% Binding,[4],15%
same,% Binding,[5],100%
"TNYLFSPNGPIARAW [TNYL-RAW peptide, non-biotinylated]",IC50,[6],~0.015 µM
same,fold lower IC50 than non-biotinylated TNYL,[6],10000 fold
B2,IC50,[7],> 100 µM
"NPVIGPIQRAWTGSGS (also: C-terminal biotin on linker (form not given here)) [NPVI peptide, synthetic, biotinylated]",IC50,[7],> 500 µM
SGHQLLNKMPN (coat-protein fusion not described),% Binding,[5],100%
B3,IC50,[8],> 100 µM
"TNYLFSPNGPIAGSGS (also: C-terminal biotin on linker (form not given here), also called biotinylated TNYL) [TNYL peptide, synthetic, biotinylated]",binding result,[9],binds
same,IC50,[7],~50 µM
B4,IC50,[7],~200 µM
B5,IC50,[8],> 100 µM
B6,IC50,[8],> 100 µM
